Data from paper PMC10700182, “A Bacterial Quorum Sensing Regulated Protease Inhibits Host Immune Responses by Cleaving Death Domains of Innate Immune Adaptors” (Advanced Science, 2023).

Biological target: the molecule itself
Assay: native gel or EMSA

B1: Myd88 DD^20-117-SNAP (domain or fragment)
chain: LPLAALNMRVRRRLSLFLNVRTQVAADWTALAEEMDFEYLEIRQLETQADPTGRLLDAWQGRPGASVGRLLELLTKLGRDDVLLELGPSIEEDCQKYI
modifications: benzylguanine dye (BG-647 or BG-488, AlexaFluor) on the SNAP tag
notes: also called MyD88 Death domain; MyD88 DD SNAP; source: E. coli BL21(DE3), purified (Ni-NTA agarose)
binding result: binds
